Assay [1] deals with T1, hRAGE-Fc (human, UniProt Q15109 23-342, biotin label in the selections and HTRF assays).
T1 construct: extracellular domain; also called biotin labeled hRAGE-Fc; Biotin-labeled RAGE-Fc; not shown: Fc part
Nature of the assay: IC50 of parental M4 scFv over IC50 of clone, HTRF competition. How it is done: (§1) Increases in binding to RAGE antigen were detected with the aid of a competition assay using parental XT-M4 antibody. Both phage display and ribosome display libraries were selected for affinity improved variants by incubating with biotin labeled hRAGE-Fc, recovering binding clones using streptavidin magnetic beads and washing away non binding variants. Sequential rounds of selection were carried on decreasing antigen concentrations to drive the preferential recovery of higher affinity variants. Clones recovered after selection were subsequently screening for improved binding to hRAGE-Fc using HTRF. This is an assay that measures the decrease in fluorescence upon binding of parental europium cryptate-labeled XT-M4 to RAGE in the presence of competing test scFv antibodies. In these assays, periplasmic preparations of scFv were prepared from bacterial cultures and added in increasing concentrations to a combination of parental antibody and antigen. The ability of the scFV to compete with parental XT-M4 antibody to bind to Biotin-labeled RAGE-Fc was determined. In the presence of avidin-XL665 complex labeled XT-M4 bound to biotinylated RAGE-FC was detected by Fluorescence. Increasing amounts of scFv that competed with the XT-M4 for binding to biotinylated-RAGE-Fc was detected as a decrease in fluorescence. A sequential process of screening was used to focus in on a smaller number of clones with the greatest competition in HTRF assay

In assay [2] the target is T1, hRAGE-Fc. Nature of the assay: HTRF competition, scFv vs labelled parental XT-M4 (competitor) on hRAGE. As to the method: as §1
Background: Time-resolved FRET reads energy transfer from a long-lived donor to a nearby acceptor.

The target of assay [3] is T1, hRAGE-Fc. Nature of the assay: HTRF competition, scFv vs labelled parental XT-M4 (competitor) on biotin hRAGE-Fc. How it is done:
as §1

Assay [4] deals with T2, HU-RAGE-SA (human, UniProt Q15109 23-342).
T2 construct: extracellular domain; Directly immobilized on a CM5 chip (~100 RU); also called hRAGE-SA; soluble human streptavidin-tagged RAGE; not shown: streptavidin tag (SA)
T2 sequence (Q15109 23-342): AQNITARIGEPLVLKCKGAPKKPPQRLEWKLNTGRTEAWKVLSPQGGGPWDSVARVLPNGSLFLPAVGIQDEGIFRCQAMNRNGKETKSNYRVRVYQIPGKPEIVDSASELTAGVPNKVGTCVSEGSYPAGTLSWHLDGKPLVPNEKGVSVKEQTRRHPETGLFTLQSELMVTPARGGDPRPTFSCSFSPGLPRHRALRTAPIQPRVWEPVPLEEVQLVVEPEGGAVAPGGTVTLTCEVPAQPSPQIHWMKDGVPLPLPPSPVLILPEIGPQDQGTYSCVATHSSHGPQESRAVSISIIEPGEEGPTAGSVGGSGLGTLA
Nature of the assay: BIAcore kd against parental M4 scFv-Fc. On the technique in general: In SPR one partner is held on a chip, and binding of the other changes the refractive index at the surface.

Assay [5] concerns the target T1, hRAGE-Fc. Nature of the assay: IC50 of parental M4 scFv-Fc over IC50 of clone, HTRF competition.
For assay [6], the target named is T2, HU-RAGE-SA. Nature of the assay: BIAcore, 10 nM scFv-Fc over directly immobilized HU-RAGE-SA, 1:1 fit.
In assay [7] the target is T3, human RAGE expressed on CHO cells (human, UniProt Q15109 23-404).
T3 construct: whole, on cells; also called CHO-RAGE cells; cell surface expressed human RAGE
T3 sequence (Q15109 23-404): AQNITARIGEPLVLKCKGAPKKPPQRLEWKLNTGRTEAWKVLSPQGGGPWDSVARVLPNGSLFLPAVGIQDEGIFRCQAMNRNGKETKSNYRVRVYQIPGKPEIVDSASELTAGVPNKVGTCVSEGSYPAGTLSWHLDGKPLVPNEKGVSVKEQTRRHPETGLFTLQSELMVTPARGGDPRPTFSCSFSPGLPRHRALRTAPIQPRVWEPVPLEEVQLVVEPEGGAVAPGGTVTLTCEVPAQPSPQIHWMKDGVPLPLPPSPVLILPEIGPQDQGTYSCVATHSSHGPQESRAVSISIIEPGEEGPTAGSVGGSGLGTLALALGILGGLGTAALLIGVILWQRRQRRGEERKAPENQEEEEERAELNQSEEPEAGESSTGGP
Nature of the assay: cell ELISA on CHO-RAGE cells, A450 corrected for control CHO cells. As to the method: Stably transfected Chinese Hamster Ovary (CHO) cells were engineered to express murine and human RAGE full length proteins. The murine and human RAGE cDNAs were cloned into the mammalian expression vector pSMED, linearized and transfected into CHO cells using lipofectin methods (Kaufman, R. J., 1990, Methods in Enzymology 185:537-66; Kaufman, R. J., 1990, Methods in Enzymology 185:487-511; Pittman, D. D. et al., 1993, Methods in Enzymology 222: 236). Cells were further selected in 20 nM methotrexate and cell extracts were harvested from individual clones and analyzed by SDS sodium dodecyl sulfate-polyacrylamide gel electrophoresis (SDS-PAGE) and Western blotting to confirm expression. […] Absorbance 450 nm values were corrected for the same clones binding to control CHO cells not expressing RAGE. EC50 values were calculated after curve fitting using GraphPad prism and are expressed in μg/ml.
A general note: In an ELISA, binding on a coated surface is turned into a signal by an enzyme label.

T1 sequence (Q15109 23-342): as the sequence (Q15109 23-342) above

B1: 3A6 scFv (scFv)
scFv: DIQMTQSPSSLSASVGDRVTITCRASQDVGIYVNWFQQKPGKAPRRLIYRATNLADGVPSRFSGSRSGTDFTLTISSLQPEDFATYYCLEFDEHPLTFGGGTKVEIKDGGGSGGGGSGGGGSSEVQLVESGGGLVQPGGSLRLSCAASGFTFNNYWMTWVRQAPGKGLEWVASIDNSGDNTYYPDSVKDRFTISRDNAKNSLYLQMNSLRAEDTAVYYCARGGDILVSLDVWGQGTLVTVSS
Take B1: the “Fold gain scFv (hRAGE)” value in assay [1] is 70 fold. In addition, the IC50 in assay [2] was found to be 470 pM; in assay [3], 474 pM.

B2: 3G5 scFv (scFv)
scFv: DIQMTQSPSSLSASVGDRVTITCRASQDVGIYVNWFQQKPGKAPRRLIYRATNLADGVPSRFSGSRSGTDFTLTISSLQPEDFATYYCLEFDEHPLTFGGGTKVEIKDGGGSGGGGSGGGGSSEVQLVESGGGLVQPGGSLRLSCAASGFTFNNYWMTWVRQAPGKGLEWVASIDNSGDNTYYPDSVKDRFTISRDNAKNSLYLQMNSLRAEDTAVYYCARGGDILDSLPYWGQGTLVTVSS
For the molecule B2, in assay [1], the “Fold gain scFv (hRAGE)” value is 37.9 fold. For the same molecule, the IC50 in assay [2] and in assay [3] was 870 pM each time.

B3: 6C2 scFv (scFv)
scFv: DIQMTQSPSSLSASVGDRVTITCRASQDVGIYVNWFQQKPGKAPRRLIYRATNLADGVPSRFSGSRSGTDFTLTISSLQPEDFATYYCLEFDEHPLTFGGGTKVEIKDGGGSGGGGSGGGGSSEVQLVESGGGLVQPGGSLRLSCAASGFTFNNYWMTWVRQAPGKGLEWVASIDNSGDNTYYPDSVKDRFTISRDNAKNSLYLQMNSLRAEDTAVYYCARGGDIKVSLDRWGQGTLVTVSS
As to B3, in assay [1], the “Fold gain scFv (hRAGE)” value came out at 48.2 fold. Further, the results for the IC50 in assay [2] and in assay [3] were 730 pM and 731 pM, respectively.

B4: 3B2 scFv (scFv)
scFv: DIQMTQSPSSLSASVGDRVTITCRASQDVGIYVNWFQQKPGKAPRRLIYRATNLADGVPSRFSGSRSGTDFTLTISSLQPEDFATYYCLEFDEHPLTFGGGTKVEIKDGGGSGGGGSGGGGSSEVQLVESGGGLVQPGGSLRLSCAASGFTFNNYWMTWVRQAPGKGLEWVASIDNSGDNTYYPDSVKDRFTISRDNAKNSLYLQMNSLRAEDTAVYYCARGGDILVGLDYWGQGTLVTVSS
B4: the “Fold gain scFv (hRAGE)” value in assay [1] was 35.8 fold. The figures for the IC50 in assay [2] and in assay [3] were 920 pM and 917 pM, respectively.

B5: 6G4 scFv (scFv)
scFv: DIQMTQSPSSLSASVGDRVTITCRASQDVGIYVNWFQQKPGKAPRRLIYRATNLADGVPSRFSGSRSGTDFTLTISSLQPEDFATYYCLEFDEHPLTFGGGTKVEIKDGGGSGGGGSGGGGSSEVQLVESGGGLVQPGGSLRLSCAASGFTFNNYWMTWVRQAPGKGLEWVASIDNSGDNTYYPDSVKDRFTISRDNAKNSLYLQMNSLRAEDTAVYYCARGGDILDSLHFWGQGTLVTVSS
Take B5: the “Fold gain scFv (hRAGE)” value in assay [1] was 16.2 fold. The IC50 in assay [2] and in assay [3] was 2030 pM throughout.

B6: 10H6 scFv-Fc fusion (Fc fusion)
chain: DIQMTQSPSSLSASVGDGVTITCQASQDVGIYVNWFQQKPGKAPRRLIYRATNLADGVPSRFSGSRSGTDFTLTISSLQPEDFATYYCLEFDEHPLTFGGGTKVEIKNGGGSGGGGSGGGGSSEVQLVESGGGLVQPGGSLRLSCAASGFTFNNYWMTWVRQAPGKGLEWVASIDNSGDNTYYPDSVKDRFTISRDNAKNSLYLQMNSLRAEDTAVYYCARGGDITTGLDYWGQGTLVTESS
notes: also called 10H6 (a); not shown: wild-type human IgG Fc (hinge and constant domains)
In the case of B6, in assay [4], the “Fold change in kd” value is 25.3 fold. Besides, the “Fold gain scFv-Fc (hRAGE)” value in assay [5] came to 13.7 fold. In addition, the koff in assay [6] is 0.00116 s⁻¹.

B7: 6B2 scFv (scFv)
scFv: DIQMTQSPSSLSASVGDRVTITCRASQDVGIYVNWFQQKPGKAPRRLIYRATNLADGVPSRFSGSRSGTDFTLTISSLQPEDFATYYCLEFDEHPLTFGGGTKVEIKDGGGSGGGGSGGGGSSEVQLVESGGGLVQPGGSLRLSCAASGFTFNNYWMTWVRQAPGKGLEWVASIDNSGDNTYYPDSVKDRFTISRDNAKNSLYLQMNSLRAEDTAVYYCARGGDIRVGLDVWGQGTLVTVSS
Take B7: the “Fold gain scFv (hRAGE)” value in assay [1] is 18.6 fold. Besides, the IC50 in assay [2] and in assay [3] was 1770 pM in each case.

B8: 6C3 scFv (scFv)
scFv: DIQMTQSPSSLSASVGDRVTITCRASQDVGIYVNWFQQKPGKAPRRLIYRATNLADGVPSRFSGSRSGTDFTLTISSLQPEDFATYYCLEFDEHPLTFGGGTKVEIKDGGGSGGGGSGGGGSSEVQLVESGGGLVQPGGSLRLSCAASGFTFNNYWMTWVRQAPGKGLEWVASIDNSGDNTYYPDSVKDRFTISRDNAKNSLYLQMNSLRAEDTAVYYCARGGDITLGLDVWGQGTLVTVSS
As for B8, in assay [1], the “Fold gain scFv (hRAGE)” value is 21.5 fold. Besides, the half-maximal inhibitory concentration (IC50) in assay [2] and in assay [3] was 1530 pM in each case.

B9: 5H3 scFv-Fc fusion (Fc fusion)
chain: DIQMTQSPSSLSASVGDRVTITCRASQDVGIYVNWFQQKPGKAPRRLIDRATNLADGVPSRFSGSRSGTDFTLTISSLQPEDFATYYCLEFDEHPLTFGGGTKVEIKDGGGSGGGGSGGGGSSEVLLVESGGGLVQPGGSLRLSCAASGFTFNNYWMTWVRQAPGKGLEWVASIDNSGDNTYYPDSVKDRFTISRDNAKNSLYLQMNSLRAEDTAVYYCARGGDITTGFDYWGQGTLVTVSS
notes: not shown: wild-type human IgG Fc (hinge and constant domains)
Consider B9, for which, in assay [4], the “Fold change in kd” value was 0.35 fold. Moreover, the “Fold gain scFv-Fc (hRAGE)” value in assay [5] is 6.1 fold. This molecule registered a koff in assay [6] of 0.0826 s⁻¹.

B10: 2E6 scFv-Fc fusion (Fc fusion)
chain: DIQMTQSPSSLSASVGDRVTITCRASQDVGIYVNWFQQKPGKAPRRLIYRATNLADGVPSRFSGSRSGTDFTLTISSLQPEDFATYYCLEFDEHPLTFGGGTKVEIKDGGGSGGGGSGGGGNSEVQLVESGVGLVQPGGSLRLSCAASGFTFNNYWMTWVRQAPGKGLEWVASIDNSGDNTYYPDSVKDRFTISRDNAKNSLYLQMNSLRAEDTAVYYCARGGDITNGLDYWGQGTLVTVSS
notes: also called 2E6 (c); not shown: wild-type human IgG Fc (hinge and constant domains)
For the molecule B10, the “Fold change in kd” value in assay [4] was 25.7 fold. The “Fold gain scFv-Fc (hRAGE)” value in assay [5] stood at 6.9 fold. In assay [7], this molecule came in with an EC50 of 0.113 µg/mL. The koff in assay [6] stood at 0.00114 s⁻¹.

B11: 3D2 scFv (scFv)
scFv: DIQMTQSPSSLSASVGDRVTITCRASQDVGIYVNWFQQKPGKAPRRLIYRATNLADGVPSRFSGSRSGTDFTLTISSLQPEDFATYYCLEFDEHPLTFGGGTKVEIKDGGGSGGGGSGGGGSSEVQLVESGGGLVQPGGSLRLSCAASGFTFNNYWMTWVRQAPGKGLEWVASIDNSGDNTYYPDSVKDRFTISRDNAKNSLYLQMNSLRAEDTAVYYCARGGDIRVSLDHWGQGTLVTVSS
B11: the “Fold gain scFv (hRAGE)” value in assay [1] worked out at 26 fold. The IC50 in assay [2] and in assay [3] was 1270 pM each time.

B12: 6B6 scFv (scFv)
scFv: DIQMTQSPSSLSASVGDRVTITCRASQDVGIYVNWFQQKPGKAPRRLIYRATNLADGVPSRFSGSRSGTDFTLTISSLQPEDFATYYCLEFDEHPLTFGGGTKVEIKDGGGSGGGGSGGGGSSEVQLVESGGGLVQPGGSLRLSCAASGFTFNNYWMTWVRQAPGKGLEWVASIDNSGDNTYYPDSVKDRFTISRDNAKNSLYLQMNSLRAEDTAVYYCARGGDIIISLDWWGQGTLVTVSS
B12: the “Fold gain scFv (hRAGE)” value in assay [1] turned out to be 50.7 fold. Also, the IC50 in assay [2] is 650 pM; in assay [3] it was 645 pM.

B13: 1G6 scFv-Fc fusion (Fc fusion)
chain: DIQMTQSPSSLSASVGDRVTITCRASQDVGFYVNWFQQKPGKAPRRLIYRATNLADGVPSRFSGSRSGTDFTLTISSLQPEDFATYYCLEFDEHPLTFGGGTKVEIKDGGGSGGGGSGGGGSSEVQLVESGGGLVQPGGSLRLSCAASGFTFNNYWMTWVRQAPGKGLEWVASIDNSGDNTYYPDSVKDRFTISRDNAKNSLYLQMNSLRAEDTAVYYCARGGDITNGFDYWGQGTLVTVSS
notes: as for B9
B13: the “Fold change in kd” value in assay [4] worked out at 66.9 fold. Also, in assay [5], the “Fold gain scFv-Fc (hRAGE)” value is 6.4 fold. The EC50 in assay [7] was determined as 0.188 µg/mL. In addition, the koff in assay [6] is 0.000438 s⁻¹.

Broadly, the IC50 is the point on the concentration scale where inhibition reaches its midpoint. A word on the koff: it is a measure of how fast the partners let go of each other. Read a low koff as a long-lived complex. Usually EC50 stands for the concentration at which the effect is half-maximal. Low values mean a more potent agent, high ones a less potent agent.

Source of the values: patent US20100143349A1 (Pfizer, published 2010).
